Laboratory results: US20020137095A1 (RIKEN, published 2002)

How the values were obtained:
[1] = molecular target: T1, full-length mouse Reelin protein (mouse, UniProt Q60841 27-3461); experiment: cell adhesion assay after allowing for about 20% background, CR-50 at 20 µg/ml
T1 construct: whole, on cells; Secreted protein; Forms homophilic complexes of unstated size; also called native Reelin; full-length Reelin

[2] = molecular target: T1, full-length mouse Reelin protein; experiment: cell adhesion assay after allowing for about 20% background, CR-50 at 50 µg/ml
[3] = molecular target: T1, full-length mouse Reelin protein; experiment: cell adhesion assay after allowing for about 20% background, CR-50 at 200 µg/ml
[4] = molecular target: the molecule itself; experiment: analytical gel filtration (Superdex-200), 0.15 M NaCl, pH 7.4, 40 µM sample
Experimental: A FPLC gel filtration chromatography system (Pharmacia) was used for chromatography. This system was controlled by a computer FPLC director program (Pharmacia). The sample was loaded onto a Superdex-200 gel filtration column (separation range: 10 kDa to 600 kDa, Pharmacia), which had been pre-equilibrated with a buffer containing 20 mM sodium phosphate, pH 7.4, 0.15 M NaCl, and 5 mM DTT, and then eluted at flow rate of 0.5 ml/min. The sample concentration was adjusted to 40 μM.

[5] = molecular target: T1, full-length mouse Reelin protein; experiment: cell adhesion assay: Reelin-presenting cells on CR-50 epitope-coated dishes (200 or 50 µg/ml)
Experimental: (A) Reelin-presenting cells on CR-50 epitope-coated dish (200 μg/ml). (B) Reelin-presenting cells on control-coated dish. (C) Histograms showing cell numbers in cell adhesion assay on CR-50 epitope-coated dishes (200 or 50 μg/ml) that are normalized to the control.
The former supernatant contained full-length Reelin molecules and the latter one contained no Reelin. After nitrocellulose/methanol treatment, Petri dishes were coated overnight with each supernatant. Petri dishes coated with the CR-50 epitope were prepared by overnight incubation with recombinant CR-50 epitope proteins produced from E. coli cells. […] After incubation for 2 hours, each plate was washed with panning buffer (PBS containing 10% v/v FCS) 7 to 10 times until no floating cells remained. To examine the effect of CR-50 antibody on cell adhesion, the antibody was added to the culture medium from the beginning of incubation. Then, the cells remaining on the dishes were observed by a microscope connected to a computer-controlled camera. This experiment was repeated five times, and for each dish, five microscopic fields were scored.

T1 sequence (Q60841 27-3461): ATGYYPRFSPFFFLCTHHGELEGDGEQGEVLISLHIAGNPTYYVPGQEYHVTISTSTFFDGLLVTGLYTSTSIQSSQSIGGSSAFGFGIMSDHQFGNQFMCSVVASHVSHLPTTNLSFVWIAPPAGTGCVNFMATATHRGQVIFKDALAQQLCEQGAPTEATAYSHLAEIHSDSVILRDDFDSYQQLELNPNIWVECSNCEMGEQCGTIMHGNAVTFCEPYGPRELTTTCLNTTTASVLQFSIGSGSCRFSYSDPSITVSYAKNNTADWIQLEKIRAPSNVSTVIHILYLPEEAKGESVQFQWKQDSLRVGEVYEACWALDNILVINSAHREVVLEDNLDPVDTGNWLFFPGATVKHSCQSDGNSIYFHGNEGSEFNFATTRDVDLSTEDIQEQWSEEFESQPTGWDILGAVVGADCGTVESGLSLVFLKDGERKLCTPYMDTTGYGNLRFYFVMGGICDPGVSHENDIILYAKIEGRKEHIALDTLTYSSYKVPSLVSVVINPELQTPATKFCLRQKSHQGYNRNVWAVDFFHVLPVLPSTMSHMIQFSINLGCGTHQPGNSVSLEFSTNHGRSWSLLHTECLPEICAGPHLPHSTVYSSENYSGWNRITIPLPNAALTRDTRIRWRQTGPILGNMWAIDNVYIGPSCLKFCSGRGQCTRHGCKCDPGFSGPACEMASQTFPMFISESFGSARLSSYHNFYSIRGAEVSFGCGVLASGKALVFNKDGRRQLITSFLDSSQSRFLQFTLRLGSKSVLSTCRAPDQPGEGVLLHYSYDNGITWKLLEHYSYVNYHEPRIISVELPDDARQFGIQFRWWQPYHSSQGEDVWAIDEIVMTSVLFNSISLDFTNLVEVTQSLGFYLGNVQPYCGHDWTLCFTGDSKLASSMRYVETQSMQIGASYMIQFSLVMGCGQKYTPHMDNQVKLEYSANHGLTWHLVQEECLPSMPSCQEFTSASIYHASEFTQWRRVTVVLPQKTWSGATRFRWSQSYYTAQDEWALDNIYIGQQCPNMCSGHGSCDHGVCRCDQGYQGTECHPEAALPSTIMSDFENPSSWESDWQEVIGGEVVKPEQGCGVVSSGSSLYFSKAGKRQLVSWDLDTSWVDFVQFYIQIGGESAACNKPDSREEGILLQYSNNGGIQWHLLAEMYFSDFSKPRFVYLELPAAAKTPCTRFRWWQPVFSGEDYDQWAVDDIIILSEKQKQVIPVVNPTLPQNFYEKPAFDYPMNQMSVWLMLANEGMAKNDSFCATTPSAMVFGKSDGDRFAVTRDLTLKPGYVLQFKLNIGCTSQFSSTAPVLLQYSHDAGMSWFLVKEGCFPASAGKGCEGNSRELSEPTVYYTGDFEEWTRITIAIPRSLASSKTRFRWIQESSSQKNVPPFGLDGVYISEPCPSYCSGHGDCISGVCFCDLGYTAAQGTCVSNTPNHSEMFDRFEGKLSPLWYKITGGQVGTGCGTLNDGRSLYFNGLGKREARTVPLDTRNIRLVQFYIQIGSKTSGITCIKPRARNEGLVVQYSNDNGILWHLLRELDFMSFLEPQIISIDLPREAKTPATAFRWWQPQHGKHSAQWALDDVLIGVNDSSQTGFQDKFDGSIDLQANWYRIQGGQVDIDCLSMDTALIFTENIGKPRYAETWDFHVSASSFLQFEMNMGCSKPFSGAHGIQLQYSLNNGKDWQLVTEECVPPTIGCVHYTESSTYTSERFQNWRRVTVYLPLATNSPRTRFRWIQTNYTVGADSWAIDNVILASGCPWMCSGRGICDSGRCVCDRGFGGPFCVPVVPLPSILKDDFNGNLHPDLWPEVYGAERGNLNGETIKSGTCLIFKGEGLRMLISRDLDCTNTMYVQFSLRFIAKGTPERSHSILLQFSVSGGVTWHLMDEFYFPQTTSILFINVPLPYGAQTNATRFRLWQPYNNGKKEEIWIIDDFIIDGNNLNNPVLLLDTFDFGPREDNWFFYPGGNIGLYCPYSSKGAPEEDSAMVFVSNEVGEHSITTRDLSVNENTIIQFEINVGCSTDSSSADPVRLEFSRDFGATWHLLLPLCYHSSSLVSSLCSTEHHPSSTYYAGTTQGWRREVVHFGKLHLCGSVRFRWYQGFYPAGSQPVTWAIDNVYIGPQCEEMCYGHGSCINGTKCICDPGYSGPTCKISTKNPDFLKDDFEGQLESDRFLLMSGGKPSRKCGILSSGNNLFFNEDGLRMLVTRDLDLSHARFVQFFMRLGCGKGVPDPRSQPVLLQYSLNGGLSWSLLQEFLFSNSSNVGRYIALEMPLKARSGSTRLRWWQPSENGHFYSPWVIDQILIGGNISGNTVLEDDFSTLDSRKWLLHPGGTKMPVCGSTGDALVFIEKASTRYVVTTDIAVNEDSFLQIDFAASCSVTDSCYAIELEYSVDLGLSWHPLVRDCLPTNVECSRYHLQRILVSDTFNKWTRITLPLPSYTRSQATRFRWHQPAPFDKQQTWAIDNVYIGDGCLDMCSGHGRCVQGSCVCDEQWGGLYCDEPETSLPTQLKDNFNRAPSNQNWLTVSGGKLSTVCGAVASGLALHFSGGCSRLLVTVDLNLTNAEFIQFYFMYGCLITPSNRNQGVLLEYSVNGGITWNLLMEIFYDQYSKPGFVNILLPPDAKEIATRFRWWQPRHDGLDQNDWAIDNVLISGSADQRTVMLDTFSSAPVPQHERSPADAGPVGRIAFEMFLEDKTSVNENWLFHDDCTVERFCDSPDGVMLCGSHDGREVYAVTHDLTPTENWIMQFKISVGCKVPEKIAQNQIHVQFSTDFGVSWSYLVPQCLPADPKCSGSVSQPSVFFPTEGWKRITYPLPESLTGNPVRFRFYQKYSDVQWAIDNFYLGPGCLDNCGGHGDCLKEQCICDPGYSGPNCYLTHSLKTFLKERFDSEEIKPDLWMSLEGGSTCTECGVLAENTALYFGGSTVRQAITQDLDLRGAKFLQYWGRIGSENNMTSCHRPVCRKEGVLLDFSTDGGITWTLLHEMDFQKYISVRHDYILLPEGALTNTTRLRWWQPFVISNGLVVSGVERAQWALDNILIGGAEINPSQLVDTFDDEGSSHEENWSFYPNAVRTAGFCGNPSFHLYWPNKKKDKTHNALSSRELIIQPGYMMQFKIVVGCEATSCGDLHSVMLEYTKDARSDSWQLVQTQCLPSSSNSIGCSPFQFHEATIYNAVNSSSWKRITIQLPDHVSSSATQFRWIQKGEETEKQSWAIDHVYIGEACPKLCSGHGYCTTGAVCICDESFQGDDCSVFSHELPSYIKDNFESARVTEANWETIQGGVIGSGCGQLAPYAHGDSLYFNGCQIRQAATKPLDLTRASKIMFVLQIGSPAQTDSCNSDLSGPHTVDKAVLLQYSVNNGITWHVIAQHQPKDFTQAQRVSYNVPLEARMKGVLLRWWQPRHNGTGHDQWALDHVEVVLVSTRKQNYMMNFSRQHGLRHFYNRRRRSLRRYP

specific binding left, fraction of the control (fraction of specific binding) [1]	specific binding left, fraction of the control (fraction of specific binding) [2]	specific binding left, fraction of the control (fraction of specific binding) [3]	binding result [5]	Molecule	binding result [4]
0.33	0.25	0.1		CR-50 antibody	
			binds	recombinant CR-50 epitope fragment of Reelin (residues 230-346) with C-terminal His-tag, from E. coli (other, not shown: small tags and cut ends, Under physiological conditions it forms a homopolymer of more than 600 kDa (more than 40 molecules of about 15 kDa)) EQCGTIMHGNAVTFCEPYGPRELTTTCLNTTTASVLQFSIGSGSCRFSYSDPSITVSYAKNNTADWIQLEKIRAPSNVSTVIHILYLPEEAKGESVQFQWKQDSLRVGEVYEACWAL	binds
